These results are taken from PMC3377377.

The target of this assay is histone H3 tail symmetrically dimethylated on R2 and trimethylated on K4 (H3R2me2sK4me3). The experiment in a line: fluorescence polarisation.

With PHD finger of RAG2 (domain or fragment), the fold increase in binding affinity against H3K4me3 alone amounted to 20 fold.
